In article PMC4051119, “Bacterial actin MreB forms antiparallel double filaments” (eLife, 2014):
Numbering of substitutions follows the chain as printed. Names may count otherwise.

Experiments:
[1] = target: the molecule itself; experiment: crystal structure; C. crescentus MreB constructs crystallised at 10-30 mg/ml, empty or with ADP or AMPPNP, no inhibitor; filament or monomer state read from the crystal packing
[2] = target: the molecule itself; experiment: as above; remark: listed apart in the source
[3] = target: the molecule itself; experiment: negative-stain electron microscopy; pre-assembled filaments (CcMreB 0.25 mg/ml, V118E 0.13 mg/ml) in 12.5 mM Tris-HCl 7.5, 2 mM ATP, 4 mM MgCl2 on a monolayer of E. coli total lipid extract, 2% uranyl acetate; 2D averaging
[4] = target: the molecule itself; experiment: cryo-electron microscopy and tomography; MreB 1 mg/ml with 1 mg/ml liposomes (E. coli total lipid extract) or lipid tubes (plus 30% C24:1 β-D galactosyl ceramide), 2 mM ATP, 4 mM MgCl2; CcMreB in 12.5 mM Tris-HCl 7.5, TmMreB in 100 mM Tris-HCl 7.5, 200 mM NaCl; 2D and subtomogram averaging

B1: ΔCcMreBh (M-I9-CcMreB-A347-GSHHHHHH) (domain or fragment, Caulobacter crescentus)
chain: MISNDIAIDLGTANTLIYQKGKGIVLNEPSVVALRNVGGRKVVHAVGIEAKQMLGRTPGHMEAIRPMRDGVIADFEVAEEMIKYFIRKVHNRKGFVNPKVIVCVPSGATAVERRAINDSCLNAGARRVGLIDEPMAAAIGAGLPIHEPTGSMVVDIGGGTTEVAVLSLSGIVYSRSVRVGGDKMDEAIISYMRRHHNLLIGETTAERIKKEIGTARAPADGEGLSIDVKGRDLMQGVPREVRISEKQAADALAEPVGQIVEAVKVALEATPPELASDIADKGIMLTGGGALLRGLDAEIRDHTGLPVTVADDPLSCVALGCGKVLEHPKWMKGVLESTLA
notes: start methionine placed before I9; MreB, Caulobacter crescentus, GenBank ACL95077.1, I9-A347 (N-terminal amphipathic helix deleted); Electrospray mass 36,916 Da (36,911 Da expected); also called CCM2; source: E. coli C41(DE3), purified (HisTrap, Sephacryl S300HR)
B1: binds [1].

B2: ΔCcMreBdh (M-I9-CcMreB(F102S, V103G)-A347-GSHHHHHH) (domain or fragment, Caulobacter crescentus)
chain: B1 chain with F95S, V96G
notes: start methionine placed before I9; MreB, Caulobacter crescentus, GenBank ACL95077.1, I9-A347, hydrophobic loop mutated (F102S, V103G); Electrospray mass 36,813 Da (36,809 Da expected); also called pFE397 (plasmid); source: E. coli C41(DE3), purified (HisTrap, Sephacryl S300HR)
B2: binds [2].

B3: Full-length, untagged MreB from C. crescentus (CcMreB) (natural protein, Caulobacter crescentus, UniProt A0A0H3C7V4 1-347, looked up)
chain: MFSSLFGVISNDIAIDLGTANTLIYQKGKGIVLNEPSVVALRNVGGRKVVHAVGIEAKQMLGRTPGHMEAIRPMRDGVIADFEVAEEMIKYFIRKVHNRKGFVNPKVIVCVPSGATAVERRAINDSCLNAGARRVGLIDEPMAAAIGAGLPIHEPTGSMVVDIGGGTTEVAVLSLSGIVYSRSVRVGGDKMDEAIISYMRRHHNLLIGETTAERIKKEIGTARAPADGEGLSIDVKGRDLMQGVPREVRISEKQAADALAEPVGQIVEAVKVALEATPPELASDIADKGIMLTGGGALLRGLDAEIRDHTGLPVTVADDPLSCVALGCGKVLEHPKWMKGVLESTLA
notes: MreB, Caulobacter crescentus, GenBank ACL95077.1, M1-A347; Forms filaments (double protofilaments); number of copies not defined; also called Caulobacter MreB; pFE403 (plasmid); source: E. coli C41, purified (HisTrap, elution by SUMO protease, GST column, S300HR size exclusion)
B3: binds [3].

B4: CcMreB-V118E (inter-protofilament mutant V118E in full-length CcMreB) (natural protein, Caulobacter crescentus, UniProt A0A0H3C7V4 1-347, looked up)
chain: B3 chain with V118E
notes: MreB, Caulobacter crescentus, GenBank ACL95077.1, full length with V118E; also called pFE542 (plasmid); source: E. coli C41, purified (HisTrap, elution by SUMO protease, GST column, S300HR size exclusion); not shown: His-SUMO, N-terminal, cleaved
B4: binds [3].

B5: Full-length untagged Thermotoga maritima MreB1 (TmMreB) (natural protein, UniProt Q9WZ57 1-336, looked up)
chain: MLRKDIGIDLGTANTLVFLRGKGIVVNEPSVIAIDSTTGEILKVGLEAKNMIGKTPATIKAIRPMRDGVIADYTVALVMLRYFINKAKGGMNLFKPRVVIGVPIGITDVERRAILDAGLEAGASKVFLIEEPMAAAIGSNLNVEEPSGNMVVDIGGGTTEVAVISLGSIVTWESIRIAGDEMDEAIVQYVRETYRVAIGERTAERVKIEIGNVFPSKENDELETTVSGIDLSTGLPRKLTLKGGEVREALRSVVVAIVESVRTTLEKTPPELVSDIIERGIFLTGGGSLLRGLDTLLQKETGISVIRSEEPLTAVAKGAGMVLDKVNILKKLQGAG
notes: MreB1, Thermotoga maritima, GenBank AAD35673.1, M1-G336; called non-tagged / untagged; also called pFE349 (plasmid); source: expressed as an Intein-CBD-tagged fusion from plasmid pFE349 and purified as described previously (Salje et al., 2011)
B5: binds [4].
